Test results reported in patent US20220306765A1 (SUZHOU TRANSCENTA THERAPEUTICS, published 2022).

Experiments:
human CLDN18.2 [1] = biological target: T1, human CLDN18.2 (human); test: flow cytometry on HEK293-CLDN18.2 cells; unit taken from the concentration axis
T1 construct: also called hCLDN18.2; Claudin-18 splice variant 2
Procedure: (§1) Log-phase HEK293-CLDN18.2 and NUGC4 cells were re-suspended in PBS. After 3× cell wash by using FACS washing buffer (PBS+2% FBS), 100 μl/well diluted hybridoma Abs with a range from 400 nM to 0.002 nM were added into each well for incubation at 4° C. for 30 min. Again, cells were washed 3 times by using FACS washing buffer and then incubated with 100 μl/well goat anti-mIgG-FITC (1:400 dilution) at 4° C. for another 30 min. After a final 3× wash using FACS washing buffer, cells were analyzed by flow Cytometry.

human CLDN18.1 = biological target: T2, human CLDN18.1 (human, UniProt P56856 1-261); test: FACS, hybridoma supernatant, HEK293-CLDN18.1 cells
T2 construct: on HEK293-CLDN18.1 cells; also called Claudin-18 splice variant 1; NP_057453.1
Procedure: Log-phase CLDN18.1 expressing HEK293-CLDN18.1 cells were resuspended in PBS at a density of 10\hat{ }5/100 μl per well. After 3× cell wash by using FACS washing buffer (PBS+2% FBS), 100 μl/well hybridoma supernatant was added into each well for incubation at 4° C. for 30 min. Again, cells were washed 3 times by using FACS washing buffer and then incubated with 100 μl/well goat anti-mIgG-FITC (1:400 dilution) at 4° C. for another 30 min. After a final 3× wash using FACS washing buffer, cells were analyzed by flow Cytometry.

human CLDN18.2 [2] = biological target: T1, human CLDN18.2; test: FACS, HEK293-CLDN18.2 cells
Procedure: as §1

T2 sequence (P56856 whole entry, canonical isoform): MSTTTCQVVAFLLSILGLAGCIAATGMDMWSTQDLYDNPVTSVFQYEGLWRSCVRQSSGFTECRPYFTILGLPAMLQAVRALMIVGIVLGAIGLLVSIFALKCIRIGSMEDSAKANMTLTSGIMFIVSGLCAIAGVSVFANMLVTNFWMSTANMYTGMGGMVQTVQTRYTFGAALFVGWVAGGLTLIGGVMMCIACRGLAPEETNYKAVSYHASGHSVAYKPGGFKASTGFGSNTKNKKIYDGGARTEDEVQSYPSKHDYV

B1: 18B10-HbLa (antibody, human IgG1, kappa, V domains shown)
VH: QVQLVQSGAEVKKPGASVKVSCKASGYSFTGYNMNWVRQAPGQGLEWMGNIDPYYGGTSYNQKFKGRVTLTIDKSTSTVYMELSSLRSEDTAVYYCARMYHGNAFDYWGQGTTVTVSS
VL: DIVMTQSPDSLAVSLGERATINCKSSQSLLNSGNLKNYLTWYQQKPGQPPKLLIYWASTRKSGVPDRFSGSGSGTDFTLTISSLQAEDVAVYYCQNDYSYPLTFGGGTKVEIKR
notes: humanized 18B10, human IgG1 / kappa
EC50 (human CLDN18.2 [1]): 1.31 mg/L

B2: 18B10-HcLa (antibody, human IgG1, kappa, V domains shown)
VH: QVQLVQSGAEVKKPGASVKVSCKASGYSFTGYNMNWVKQAPGQGLEWIGNIDPYYGGTSYNQKFKGRVTLTIDKSTSTVYMELSSLRSEDTAVYYCARMYHGNAFDYWGQGTTVTVSS
VL: DIVMTQSPDSLAVSLGERATINCKSSQSLLNSGNLKNYLTWYQQKPGQPPKLLIYWASTRKSGVPDRFSGSGSGTDFTLTISSLQAEDVAVYYCQNDYSYPLTFGGGTKVEIKR
notes: as for B1
EC50 (human CLDN18.2 [1]): 1.39 mg/L

B3: 18B10-HcLb (antibody, human IgG1, kappa, V domains shown)
VH: QVQLVQSGAEVKKPGASVKVSCKASGYSFTGYNMNWVKQAPGQGLEWIGNIDPYYGGTSYNQKFKGRVTLTIDKSTSTVYMELSSLRSEDTAVYYCARMYHGNAFDYWGQGTTVTVSS
VL: DIVMTQSPDSLAVSLGERATMNCKSSQSLLNSGNLKNYLTWYQQKPGQPPKLLIYWASTRKSGVPDRFTGSGSGTDFTLTISSLQAEDVAVYYCQNDYSYPLTFGGGTKVEIKR
notes: as for B1
EC50 (human CLDN18.2 [1]): 1.22 mg/L

B4: 18B10-HbLb (antibody, human IgG1, kappa, V domains shown)
VH: QVQLVQSGAEVKKPGASVKVSCKASGYSFTGYNMNWVRQAPGQGLEWMGNIDPYYGGTSYNQKFKGRVTLTIDKSTSTVYMELSSLRSEDTAVYYCARMYHGNAFDYWGQGTTVTVSS
VL: DIVMTQSPDSLAVSLGERATMNCKSSQSLLNSGNLKNYLTWYQQKPGQPPKLLIYWASTRKSGVPDRFTGSGSGTDFTLTISSLQAEDVAVYYCQNDYSYPLTFGGGTKVEIKR
notes: as for B1
EC50 (human CLDN18.2 [1]): 1.2 mg/L

B5: 18B10-HaLb (antibody, human IgG1, kappa, V domains shown)
VH: QVQLVQSGAEVKKPGASVKVSCKASGYTFTGYNMNWVRQAPGQGLEWMGNIDPYYGGTSYNQKFKGRVTMTIDKSTSTVYMELSSLRSEDTAVYYCARMYHGNAFDYWGQGTTVTVSS
VL: DIVMTQSPDSLAVSLGERATMNCKSSQSLLNSGNLKNYLTWYQQKPGQPPKLLIYWASTRKSGVPDRFTGSGSGTDFTLTISSLQAEDVAVYYCQNDYSYPLTFGGGTKVEIKR
notes: as for B1
EC50 (human CLDN18.2 [1]): 1.27 mg/L

B6: 18B10 (antibody, V domains shown)
VH: EFQLQQSGPELEKPGASVRISCKTSGYSFTGYNMNWVKQSNGESLEWIGNIDPYYGGTSYNQKFKGKATLTVDKSSSTAYMQLKSLTSEDSAVYYCARMYHGNAFDYWGQGTTLTVSS
VL: DIVMTQSPSSLTVTAGEKVTMSCKSSQSLLNSGNLKNYLTWYQQKPGQPPKLLIYWASTRKSGVPDRFTGSGSGTDFTLTLSSVQAEDLAVYYCQNDYSYPLTFGAGTKLELK
notes: mouse hybridoma antibody; also called hybridoma antibody 18B10
binding result (human CLDN18.1): no binding
EC50 (human CLDN18.2 [2]): 0.81 mg/L

B7: 59A9 (antibody, V domains shown)
VH: QITQKESGPGILQPSQTLSLTCSLSGFSLSTYFIGVGWIRQPSGKGLEWLAHIWWNDNKYYNTALKSRLTISKDTSNNQVFLKIASVDTADTATYYCARMGSGAWFTYWGQGTLVTVSA
VL: DIVMTQSPSSLTVTAGEKVTMSCKSSQSLLNSGNQKNYLTWYQQKPGQPPKLLIYWASTRESGVPDRFTGSGSGTDFTLTISSVQAEDLAVYYCQNDYYYPLTFGSGTKLEIK
notes: mouse hybridoma antibody; also called hybridoma antibody 59A9
binding result (human CLDN18.1): no binding
EC50 (human CLDN18.2 [2]): 0.51 mg/L
